Measurements taken from patent US10487116B2, “Immunotherapy against several tumors, such as lung cancer, including NSCLC” (IMMATICS BIOTECHNOLOGIES GMBH, priority 2013, dated 2019).

Tests used:
[1] = tested on: prostate cancer cells; conditions: Beckers et al., 2007; cited from earlier work
[2] = biological target: HLA-A*0201 (Homo sapiens, UniProt P04439, D140Y/D185E/D98H/E176V/E277Q/G131W/G231S/I119V/I121R/I166T/I218V/L300P/L318F/N151K/N90K/P208A/P217A/Q86G/Q94H/R138H/R169H/T345S); assay: UV-ligand exchange with ELISA of stabilized MHC complexes; format: binding; conditions: for Exchange yield: class symbol
Source text: Candidate peptides for the vaccines according to the present invention were further tested for immunogenicity by in vitro priming assays. The individual peptide-MHC complexes required for these assays were produced by UV-ligand exchange, where a UV-sensitive peptide is cleaved upon UV-irradiation, and exchanged with the peptide of interest as analyzed. Only peptide candidates that can effectively bind and stabilize the peptide-receptive MHC molecules prevent dissociation of the MHC complexes. To determine the yield of the exchange reaction, an ELISA was performed based on the detection of the light chain (β2m) of stabilized MHC complexes. The assay was performed as generally described in Rodenko et al. (Rodenko B, Toebes M, Hadrup S R, van Esch W J, Molenaar A M, Schumacher T N, Ovaa H. Generation of peptide-MHC class I complexes through UV-mediated ligand exchange. Nat Protoc. 2006; 1(3):1120-32.).
96 well MAXISorp plates (NUNC) were coated over night with 2 ug/ml streptavidin in PBS at room temperature, washed 4× and blocked for 30 min at 37° C. in 2% BSA containing blocking buffer. Refolded HLA-A*0201/MLA-001 monomers served as standards, covering the range of 8-500 ng/ml. Peptide-MHC monomers of the UV-exchange reaction were diluted 100 fold in blocking buffer. Samples were incubated for 1 h at 37° C., washed four times, incubated with 2 ug/ml HRP conjugated anti-β2m for 1 h at 37° C., washed again and detected with TMB solution that is stopped with […]. Absorption was measured at 450 nm.

## CO[C@H]1CCCC[C@@H](c2ccccc2)OC(=O)[C@@H](C)[C@@]2(O)O[C@H]([C@@H](C)[C@H](O)[C@H]2OC)[C@@H](C)/C=C/[C@H]1OC [soraphen A]
[1]
  fatty acid oxidation: enhances fatty acid oxidation
  lipogenesis: blocks lipogenesis

## AMLAVLHTV (listed as Homo sapiens) [SEQ ID NO 64]
[2]
  Exchange yield: ++ (20%-49% = ++)

## AMSSKFFLV (listed as Homo sapiens) [SEQ ID NO 69]
[2]
  Exchange yield: ++ (20%-49% = ++)

## AVVEFLTSV (listed as Homo sapiens) [SEQ ID NO 19]
[2]
  Exchange yield: +++ (50%-70%, +++)

## FLHHLEIEL (listed as Homo sapiens) [SEQ ID NO 23]
[2]
  Exchange yield: +++ (50%-70%, +++)

## FLIPIYHQV (listed as Homo sapiens) [SEQ ID NO 22]
[2]
  Exchange yield: +++ (50%-70%, +++)

## FLLDGSANV (listed as Homo sapiens) [SEQ ID NO 73]
[2]
  Exchange yield: ++++ (>70 = ++++)

## FLVDGSWSV (listed as Homo sapiens) [SEQ ID NO 24]
[2]
  Exchange yield: +++ (50%-70%, +++)

## FQYDHEAFL (listed as Homo sapiens) [SEQ ID NO 14]
[2]
  Exchange yield: ++++ (>70 = ++++)

## GLAEDIDKGEV (listed as Homo sapiens) [SEQ ID NO 57]
[2]
  Exchange yield: ++ (20%-49% = ++)

## GLIEIISNA (listed as Homo sapiens) [SEQ ID NO 48]
[2]
  Exchange yield: +++ (50%-70%, +++)

## GLTDNIHLV (listed as Homo sapiens) [SEQ ID NO 40]
[2]
  Exchange yield: +++ (50%-70%, +++)

## GLYPDAFAPV (listed as Homo sapiens) [SEQ ID NO 25]
[2]
  Exchange yield: +++ (50%-70%, +++)

## GVLENIFGV (listed as Homo sapiens) [SEQ ID NO 47]
[2]
  Exchange yield: ++++ (>70 = ++++)

## HLLEDIAHV (listed as Homo sapiens) [SEQ ID NO 92]
[2]
  Exchange yield: ++ (20%-49% = ++)

## ILFEINPKL (listed as Homo sapiens) [SEQ ID NO 1]
[2]
  Exchange yield: ++++ (>70 = ++++)

## ILFPDIIARA (listed as Homo sapiens) [SEQ ID NO 62]
[2]
  Exchange yield: ++++ (>70 = ++++)

## ILMGTELTQV (listed as Homo sapiens) [SEQ ID NO 84]
[2]
  Exchange yield: ++ (20%-49% = ++)

## ILQDRLNQV (listed as Homo sapiens) [SEQ ID NO 67]
[2]
  Exchange yield: ++ (20%-49% = ++)

## ILVSWLPRL (listed as Homo sapiens) [SEQ ID NO 59]
[2]
  Exchange yield: ++++ (>70 = ++++)

## KILEDVVGV (listed as Homo sapiens) [SEQ ID NO 70]
[2]
  Exchange yield: +++ (50%-70%, +++)

## KIQEILTQV (listed as Homo sapiens) [SEQ ID NO 66]
[2]
  Exchange yield: ++ (20%-49% = ++)

## KIQEMQHFL (listed as Homo sapiens) [SEQ ID NO 2]
[2]
  Exchange yield: +++ (50%-70%, +++)

## KIVDFSYSV (listed as Homo sapiens) [SEQ ID NO 85]
[2]
  Exchange yield: +++ (50%-70%, +++)

## KIYNEFISV (listed as Homo sapiens) [SEQ ID NO 30]
[2]
  Exchange yield: ++ (20%-49% = ++)

## KLAVALLAA (listed as Homo sapiens) [SEQ ID NO 15]
[2]
  Exchange yield: ++ (20%-49% = ++)

## KLDETNNTL (listed as Homo sapiens) [SEQ ID NO 6]
[2]
  Exchange yield: +++ (50%-70%, +++)

## KLFGEKTYL (listed as Homo sapiens) [SEQ ID NO 26]
[2]
  Exchange yield: ++ (20%-49% = ++)

## KLLEYIEEI (listed as Homo sapiens) [SEQ ID NO 71]
[2]
  Exchange yield: ++ (20%-49% = ++)

## KLLTEVHAA (listed as Homo sapiens) [SEQ ID NO 72]
[2]
  Exchange yield: +++ (50%-70%, +++)

## KLSWDLIYL (listed as Homo sapiens) [SEQ ID NO 32]
[2]
  Exchange yield: +++ (50%-70%, +++)

## KLVEFDFLGA (listed as Homo sapiens) [SEQ ID NO 54]
[2]
  Exchange yield: +++ (50%-70%, +++)

## KVLEILHRV (listed as Homo sapiens) [SEQ ID NO 65]
[2]
  Exchange yield: +++ (50%-70%, +++)

## NLIEKSIYL (listed as Homo sapiens) [SEQ ID NO 4]
[2]
  Exchange yield: ++ (20%-49% = ++)

## NLLAEIHGV (listed as Homo sapiens) [SEQ ID NO 44]
[2]
  Exchange yield: ++++ (>70 = ++++)

## RLLDSVSRL (listed as Homo sapiens) [SEQ ID NO 39]
[2]
  Exchange yield: +++ (50%-70%, +++)

## RLLGPSAAADILQL (listed as Homo sapiens) [SEQ ID NO 17]
[2]
  Exchange yield: ++ (20%-49% = ++)

## RLLJAAENFL (RLLAAENFL; listed as Homo sapiens) [SEQ ID NO 49]
[2]; ELISA detecting β2m of stabilized MHC complexes
  Average exchange yield in %: 47%
[2]
  Exchange yield: ++ (20%-49% = ++)

## RVLPPSALQSV (listed as Homo sapiens) [SEQ ID NO 87]
[2]
  Exchange yield: +++ (50%-70%, +++)

## SILTIEDGIFEV (listed as Homo sapiens) [SEQ ID NO 41]
[2]
  Exchange yield: ++ (20%-49% = ++)

## SISDVIAQV (listed as Homo sapiens) [SEQ ID NO 28]
[2]
  Exchange yield: +++ (50%-70%, +++)

## SLAGDVALQQL (listed as Homo sapiens) [SEQ ID NO 63]
[2]
  Exchange yield: ++++ (>70 = ++++)

## SLAPAGVIRV (listed as Homo sapiens) [SEQ ID NO 79]
[2]
  Exchange yield: +++ (50%-70%, +++)

## SLFGNSGILENV (listed as Homo sapiens) [SEQ ID NO 80]
[2]
  Exchange yield: +++ (50%-70%, +++)

## SLHFLILYV (listed as Homo sapiens) [SEQ ID NO 38]
[2]
  Exchange yield: + (<20% = +)

## SLIDADPYL (listed as Homo sapiens) [SEQ ID NO 58]
[2]
  Exchange yield: +++ (50%-70%, +++)

## SLIEDLILL (listed as Homo sapiens) [SEQ ID NO 12]
[2]
  Exchange yield: ++ (20%-49% = ++)

## SLLAQNTSWLL (listed as Homo sapiens) [SEQ ID NO 74]
[2]
  Exchange yield: +++ (50%-70%, +++)

## SLLESNKDLLL (listed as Homo sapiens) [SEQ ID NO 88]
[2]
  Exchange yield: +++ (50%-70%, +++)

## SLLPVDIRQYL (listed as Homo sapiens) [SEQ ID NO 50]
[2]
  Exchange yield: +++ (50%-70%, +++)

## SLVAVELEKV (listed as Homo sapiens) [SEQ ID NO 90]
[2]
  Exchange yield: +++ (50%-70%, +++)

## SLWGGDVVL (listed as Homo sapiens) [SEQ ID NO 42]
[2]
  Exchange yield: +++ (50%-70%, +++)

## SLYDNQITTV (listed as Homo sapiens) [SEQ ID NO 78]
[2]
  Exchange yield: ++ (20%-49% = ++)

## SLYKGLLSV (listed as Homo sapiens) [SEQ ID NO 56]
[2]
  Exchange yield: ++ (20%-49% = ++)

## SMSGYDQVL (listed as Homo sapiens) [SEQ ID NO 8]
[2]
  Exchange yield: ++ (20%-49% = ++)

## TLISRLPAV (listed as Homo sapiens) [SEQ ID NO 61]
[2]
  Exchange yield: ++++ (>70 = ++++)

## TLSSIKVEV (listed as Homo sapiens) [SEQ ID NO 5]
[2]
  Exchange yield: +++ (50%-70%, +++)

## TLTNIIHNL (listed as Homo sapiens) [SEQ ID NO 46]
[2]
  Exchange yield: +++ (50%-70%, +++)

## TLWYRAPEV (listed as Homo sapiens) [SEQ ID NO 7]
[2]
  Exchange yield: ++ (20%-49% = ++)

## TLYPHTS (TLYPHTSQV; listed as Homo sapiens) [SEQ ID NO 18]
[2]
  Exchange yield: ++ (20%-49% = ++)

## TVAEVIQS V (TVAEVIQSV; listed as Homo sapiens) [SEQ ID NO 27]
[2]
  Exchange yield: +++ (50%-70%, +++)

## TVIGFLLPFA (listed as Homo sapiens) [SEQ ID NO 16]
[2]
  Exchange yield: ++++ (>70 = ++++)

## VLAPLFVYL (listed as Homo sapiens) [SEQ ID NO 37]
[2]
  Exchange yield: +++ (50%-70%, +++)

## VLFPNLKTV (listed as Homo sapiens) [SEQ ID NO 35]
[2]
  Exchange yield: ++ (20%-49% = ++)

## VLLPVEVATHYL (listed as Homo sapiens) [SEQ ID NO 11]
[2]
  Exchange yield: +++ (50%-70%, +++)

## VLSVVEVTL (listed as Homo sapiens) [SEQ ID NO 10]
[2]
  Exchange yield: ++++ (>70 = ++++)

## VVDKTLLLV (listed as Homo sapiens) [SEQ ID NO 60]
[2]
  Exchange yield: ++ (20%-49% = ++)

## YLAPFLRNV (listed as Homo sapiens) [SEQ ID NO 51]
[2]
  Exchange yield: +++ (50%-70%, +++)

## YLIHFPVSV (listed as Homo sapiens) [SEQ ID NO 13]
[2]
  Exchange yield: + (<20% = +)

## YLPHAPPFA (listed as Homo sapiens) [SEQ ID NO 53]
[2]
  Exchange yield: +++ (50%-70%, +++)

## YVYQNNIYL (listed as Homo sapiens) [SEQ ID NO 68]
[2]
  Exchange yield: ++ (20%-49% = ++)
